# The DeepSol protein solubility set
# Assay: soluble on expression in E. coli; label from the status in PepcDB or PDB records
row,Sequence,soluble on expression in E. coli
1,MKNLSLFTDFYEISMMNAYFTKGINPKAKFEVFFRKTPFKNGYIVLAGMHTLINELKNIRFGENELKYLKSFNILDKQFLNFLREFKLNVKISSIEEGRIVFPQAPVVVIEGHLIELLLIEGLVLNIINFESLIATKTARIKESGAKILAELGLRRAQGINGALSASKAAYIGGADFTSNMLAGYKYNIPVTGTMAHSWIMSFETEEQAFREYAKTYPNKVSLLIDTYDTLNSGLKNAIKIFKELKHEEKNNFSIRIDSGDLEYLSKAARKELNRNGLNHVKIIASNELDENIIMYLNSINAPIDIWGVGTNLVTAKGDPSLSGVYKMISIEKNGKFIPKIKISNNAEKSTLPDQKEVARIYLNDQMILDFIFLKEEKDKIKDHLNSRKEFTVFHPIQDNIFKIIKQYDDFEFLTHTVLENGKLRKGYESSLTNIRNKTKLDLSKLEHTYKRIINPHIYKVSISKNLRKLKNKLTKDIKNN,not soluble
2,MSGNRGGSYISGIVPSFKERRPFHERQKDVEEIRSQQPNKVPVIIERFDGERSLPLMDRCKFLVPEHITVAELMSIVRRRLQLHPQQAFFLLVNERSMVSNSMSMSNLYSQERDPDGFVYMVYTSQPAFG,not soluble
3,MKIYYEGYGCTLNQGETGLYVNKLLSEGSVLVSRPDEADISIIGTCAVIQKTEDHMLKRIEELSRLGRVKVIGCLSAIKGSEISGGNIEAIDRNEFQQFQEYLEDTSIIDAEIMSGIPINQGCTGKCNFCISHIARGKLVSRRPEKIVNQIRMMVAAGKREIRISSLDTAAYGKDTGYRLPSLIKDITAVDGDFMLRVGMMEPRNTIEILDDLLEAYDDPKVFKFLHIPVQSGDDRVLTAMNREYTVDEFMQIIESFRKRFPDMTISTDVIIGYHAENDRSFDLTCDLIRKVQPEIINVTRFSPRELTPDFEHRPRPTNVLKDQDRTMAEIHRKIVSERFSALVGKVERILITEDGKPGTMVGRDASYRPVVIRAPAEKYTWHSARIIGYENTSLIGELVDLEHHHHHH,soluble
4,MGHHHHHHSHRGAGRVSRWPPPHWLEAWRVSPRPLSPLSPATFGRGFIAVAVIPGLWARGRGCSSDRLPRPAGPARRQFQAASLLTRGWGRAWPWKQILKELDECYERFSRETDGAQK,not soluble
5,MLNTSDIGKVFPSVTAVVEKGRLRFFAKAIGENNPIYTDEAAAKDAGYESLPMPPTFFFSLKMDVPNPFENYEKVGASLAKILHANQAFVYHQSVVAGDSLTFESHIADIYDKKAGALEFLVEKTKVSNQRGQHVADMTTTLVVRNLEHHHHHH,not soluble
6,MGSWSEKAFSASKLDDAIAAKFGSLPIQESTAIQIKAPEIAENGAFVPVTVATSIPGATNISIFTPANFSPMVASFDVLPRMKPEVSLRMRMAKTENLVVVVQAGGKLYRAVREVKVTIGGCGG,soluble
7,MGSDKIHHHHHHMFWFKNVMIYRLTNALQLASNELEPLLQQHRFIGCSQSEMSKFGWTAPLAKTEQLHFCHTKQFLLISHKEDKLLPANVIKAETEERIALLEEKENRKLKKTEKQAIKDDVIAMLLPRAFSKHQFTAIWLDLDAQLVYVDAASSKRAEASLALLRKTLGSLPVVPLSFVQLPAEVMTNWLAKGHTPNWLTLLEEAELKSFETESVIRCKKQELESDEICYHLQAGKLVTKLAIEWENHFSCVLNNDATLTRLKFAGEIIEKNDDILKEDIAQRLDADFLLMTEELRLFTQKLIEEFGGIKE,not soluble
8,MGSSHHHHHHSSGLVPRGSMAGVDPFTGNSAYRSAASKTMNIYFPKKEAVTFDQANPTQILGKLKELNGTAPEEKKLTEDDLILLEKILSLICNSSSEKPTVQQLQILWKAINCPEDIVFPALDILRLSIKHPSVNENFCNEKEGAQFSSHLINLLNPKGKPANQLLALRTFCNCFVGQAGQKLMMSQRESLMSHAIELKSGSNKNIHIALATLALNYSVCFHKDHNIEGKAQCLSLISTILEVVQDLEATFRLLVALGTLISDDSNAVQLAKSLGVDSQIKKYSSVSEPAKVSECCRFILNLL,soluble
9,MSLSREPQTYLAQRFDPDALGQPALALQLEARHNDTEVPVHRHRKGQLVVACRGGITCTVPDGLWMVPAGFGVWIPGGIAHSNRVTANGKVCFLFVEPGAARLPSDCCTLALSPLVLELILHLSAQPQDYPHDGPLARLAGVLLELLEQAPTEQLYLPLPDNRGLRRIADELTRAPGDRASMAEWARRVAMSERSLARMVRRETGMTFGQWRQQLQIIIALQQLSAGVSVQRTAEILGYESVSSFIGMFRKALGSPPARYVRDSMEGGSHHHHHH,soluble
10,AFTGKYEIESEKNYDEFMKRLALPSDAIDKARNLKIISEVKQDGQNFTWSQQYPGGHSITNTFTIGKECDIETIGGKKFKATVQMEGGKVVVNSPNYHHTAEIVDGKLVEVSTVGGVSYERVSKKLA,soluble
11,MGSDKIHHHHHHMALDGYTDQTMSRQAMRAELLDAETELRLAYAWRDQRDERALHRLITAYMRLAISMASKYRRYGAPMNDLIQEASLGLMKAADKFDPDRGVRFSTYAVWWIKASIQDYVMRNWSLVRTGSTSSQKALFFNMRRVQARLEREASQRGEALDAHQLREMVAHDVGVPLSDVEMMEGRLSGSDFSLNATQSADDEGREWIDALEDDSAQAAEVVEGSLDAARLRGWLVSAMQQLNARERFIVTERKLRDVPRTLESLGEELKLSKERVRQLEAAAFAKMRRSLEAQSREVHHFLL,not soluble
12,MISNFKSISLTYRKAPLEIRERVALNEAECKSLMLRIKDFTDTAELLILSTCNRTEIYYTSNEDYSNDIIKLLGVEKNITGLIQQKEYFEIYNEQADAVLHLFEVGIGLDSQVVGDMQIVNQVKYAYQWSADLNLAGPFLHRLMHTIFFTNKRVVQETAFRDGAASVSYATVELSEELLSATPNANILIVGLGEIGADVCRNFKANTSFKNITLTNRSPLKSEALAAECGIEHVPFETLWEAVAKADLVISSVAKEEPLFTKEEIQKLSILSHKYFIDLSVPRSVDARAEELPGIIVYDIDHIQNRSNEALENRLNAIPHVRKIILDSIVEFNEWSKEMEVSPTINKLKNALEQIRKEELSRFVKQLSDEEAKKVDEITKSIMQKIIKLPVLQLKAACKRGEAETLIDVLNDLFNLDKQPEQIRD,not soluble
13,MTENALLLLNLGSPDSTRVEDVRRYLDQFLMDPYVVDLPWPLRRLLVSLILIKRPAESAHAYSSIWWDEGSPLIVLSRRLQEAMKPHWPHGPVELAMRYGQPAIEKVLLDLARRGIRRVTLAPLYPQFADSTTTTAEQEVRRVIAAHRLGLEVSTLPPFYDQPVYLDALVESVRPYLQQPHDHLLLSFHGLPERHIRKLVKDPAHDLLAENSRNVSPEALALCYRSQCLRTAEAFAERAGLEQGRWSVSFQSRLGRAKWIEPYTDAKLDELVQRGVKRLLVMCPAFVADCIETLEEIGMRGREQFISAGGEDLVLIPCLNDHPAWVGALAEMSGRLARPL,not soluble
14,MSEAEARPTNFIRQIIDEDLASGKHTTVHTRFPPEPNGYLHIGHAKSICLNFGIAQDYKGQCNLRFDDTNPVKEDIEYVESIKNDVEWLGFHWSGNVRYSSDYFDQLHAYAIELINKGLAYVDELTPEQIREYRGTLTQPGKNSPYRDRSVEENLALFEKMRAGGFEEGKACLRAKIDMASPFIVMRDPVLYRIKFAEHHQTGNKWCIYPMYDFTHCISDALEGITHSLRTLEFQDNRRLYDWVLDNITIPVHPRQYEFSRLNLEYTVMSKRKLNLLVTDKHVEGWDDPRMPTISGLRRRGYTAASIREFCKRIGVTKQDNTIEMASLESCIREDLNENAPRAMAVIDPVKLVIENYQGEGEMVTMPNHPNKPEMGSRQVPFSGEIWIDRADFREEANKQYKRLVLGKEVRLRNAYVIKAERVEKDAEGNITTIFCTYDADTLSKDPADGRKVKGVIHWVSAAHALPVEIRLYDRLFSVPNPGAADDFLSVINPESLVIKQGFAEPSLKDAVAGKAFQFEREGYFCLDSRHSTAEKPVFNRTVGLRDTLEHHHHHH,soluble
15,KRAGTVCSNCQTSTTTLWRRSPMGDPVCNACGLYYKLHQVNRPLTMRKDGIQTRNRKVSSKGKKRR,soluble
16,MKTRSEVFQFEKELKWEHPAPGIRRQIMGYDGQLMMVKVEFEKGAVGTLHEHYHSQATYVASGKFELTIGDRKEILSTGDGYYVAPDEPHGCVCLEAGVLIDTFSPMRADFLE,not soluble
17,GDALTSPQQTKLYLSSVLRDRQREAFYILFLDNQHRVIRDEILFEGTIDAASVYPREVVKRALHHNAAAVILAHNHPSGVAEPSQADRRITDRLRDALGLVEIRVLDHFVVGDGEVVSFAERGWI,soluble
